Measurements from patent US20160052979.

Assays:
Purα (PURA) = experiment: EMSA; details: unit not stated, densitometry
TZIP (synthetic) = tested on: T1, TZIP (synthetic); experiment: EMSA; details: unit not stated, densitometry
T1 sequence: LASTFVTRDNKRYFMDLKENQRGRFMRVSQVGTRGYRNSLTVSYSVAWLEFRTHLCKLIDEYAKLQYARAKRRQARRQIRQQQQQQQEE

Substance: ALS ssDNA (C9ORF72 GGGGCC hexanucleotide repeat)
- Kd (Purα (PURA); 5 mM DTT, 5 mM EDTA, 0.5% Tween 20): 16 nM
- Kd (TZIP (synthetic); printed 5.5×1010, exponent sign lost, 5 mM DTT, 5 mM EDTA, 0.5% Tween 20, TZIP alters Purα shift and stimulates …): 0.55 nM

Substance: FXS ssDNA (FMR1 G-rich trinucleotide expanded repeat)
- Kd (Purα (PURA); printed 1.9×109, exponent sign lost): 1.9 nM
- Kd (TZIP (synthetic); printed 9.5×1010, exponent sign lost, TZIP stimulates Purα binding): 0.95 nM
